Measurements reported in patent US20080064628A1, “Fibrinogen Targetting Microparticles For Promoting Haemostasis” (Haemostatix Limited, priority 2003, published 2008).
Ends that are not written are not given here.

Columns and labels:
fibrinogen = target: T1, fibrinogen (Homo sapiens, UniProt P02675+P02679); experiment: Fibrinogen binding assay: FITC-labelled anti-human fibrinogen antibody, flow cytometry; conditions: for Percent positive (percentage of microspheres positive for fibrinogen): flow cytometry, FITC rabbit anti-human fibrinogen antibody; for Median fluorescence intensity: measure of the amount of fibrinogen bound to the microspheres
T1 construct: purchased Scottish National Blood Transfusion Service
T1 sequence (P02671 20-629 partner limits assumed): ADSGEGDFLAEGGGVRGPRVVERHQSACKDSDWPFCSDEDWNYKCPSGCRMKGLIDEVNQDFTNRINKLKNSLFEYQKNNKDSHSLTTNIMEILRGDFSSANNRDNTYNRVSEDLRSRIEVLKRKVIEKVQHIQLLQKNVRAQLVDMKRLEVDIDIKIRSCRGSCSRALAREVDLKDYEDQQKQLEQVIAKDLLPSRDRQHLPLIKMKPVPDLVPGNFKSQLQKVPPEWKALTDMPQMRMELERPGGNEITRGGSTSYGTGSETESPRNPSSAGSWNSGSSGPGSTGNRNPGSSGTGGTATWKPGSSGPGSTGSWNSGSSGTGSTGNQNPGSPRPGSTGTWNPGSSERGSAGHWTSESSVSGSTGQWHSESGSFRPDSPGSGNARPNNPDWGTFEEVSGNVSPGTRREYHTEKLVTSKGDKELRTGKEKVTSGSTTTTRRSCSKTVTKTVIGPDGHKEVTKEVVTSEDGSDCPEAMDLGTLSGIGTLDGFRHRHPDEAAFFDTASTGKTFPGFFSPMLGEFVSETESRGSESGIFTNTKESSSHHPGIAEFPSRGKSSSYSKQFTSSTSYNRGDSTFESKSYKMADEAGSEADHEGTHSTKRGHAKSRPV
T1 sequence (P02675 31-491): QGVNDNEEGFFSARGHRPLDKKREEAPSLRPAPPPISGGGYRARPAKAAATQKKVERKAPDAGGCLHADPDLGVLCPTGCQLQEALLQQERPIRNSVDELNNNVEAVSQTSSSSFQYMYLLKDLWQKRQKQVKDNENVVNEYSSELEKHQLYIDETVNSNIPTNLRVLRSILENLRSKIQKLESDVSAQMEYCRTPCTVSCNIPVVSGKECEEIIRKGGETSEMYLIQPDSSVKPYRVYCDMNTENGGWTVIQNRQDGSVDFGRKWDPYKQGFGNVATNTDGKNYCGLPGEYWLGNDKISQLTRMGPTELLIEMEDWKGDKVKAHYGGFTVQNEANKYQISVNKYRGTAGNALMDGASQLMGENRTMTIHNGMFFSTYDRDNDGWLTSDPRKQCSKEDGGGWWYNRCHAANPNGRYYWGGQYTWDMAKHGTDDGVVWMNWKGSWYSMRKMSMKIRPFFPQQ
T1 sequence (P02679 27-437 isoform P02679-2 limits assumed): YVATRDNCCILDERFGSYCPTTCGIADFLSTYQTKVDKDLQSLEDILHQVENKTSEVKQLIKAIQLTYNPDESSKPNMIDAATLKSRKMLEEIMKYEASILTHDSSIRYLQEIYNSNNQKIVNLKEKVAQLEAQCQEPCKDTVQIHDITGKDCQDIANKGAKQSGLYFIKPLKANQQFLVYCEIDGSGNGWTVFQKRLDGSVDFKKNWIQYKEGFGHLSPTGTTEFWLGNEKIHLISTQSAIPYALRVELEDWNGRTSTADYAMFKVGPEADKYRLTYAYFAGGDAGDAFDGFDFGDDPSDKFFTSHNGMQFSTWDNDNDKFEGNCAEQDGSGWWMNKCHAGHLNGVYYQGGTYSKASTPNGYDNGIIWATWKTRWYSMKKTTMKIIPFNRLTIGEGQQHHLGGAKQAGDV
Procedure: 2. Fibrinogen Binding Assay
(i) 5 μl of a suspension of artificial platelets obtained from step (iv) of method 1 above was added to 50 μl of HEPES buffered saline containing 1 μl of FITC-labelled rabbit antibody to human fibrinogen (DakoCytomation; F0111). The mixture was incubated at 20° C. for 20 minutes. Blank microspheres (without DTNB treatment or peptide) or a cysteine control sample were used as a negative control for these assays.
(ii) After 20 minutes the reaction was stopped by the addition of 0.5 ml saline. After a further 10 minutes, the sample was diluted 1/10 in saline and analysed in a Flow Cytometer (e.g. Coulter XL-MCL Flow Cytometer).
(iii) Data were recorded as the percentage of microspheres positive for fibrinogen and the median fluorescence intensity of the particles. The latter is a measure of the amount of fibrinogen bound to the microspheres and is in arbitrary units (log scale).

platelets [1] = experiment: Platelet aggregation in platelet-depleted plasma by counting single platelets in a flow cytometer; format: cell-based, human; conditions: mean ± sd of 3 experiments; for Percentage aggregation in the absence of ADP: inactive platelets, percentage loss of single CD42b-positive platelets from the gate; for Percentage aggregation in the presence of ADP: platelets activated with sub-optimal ADP, percentage loss of single CD42b-positive platelets
Procedure: 3.2 Preparation of Platelet-Depleted Plasma
(i) Two tubes of blood were collected into tri-sodium citrate anticoagulant, by clean venepuncture via a 21 gauge butterfly needle. The blood was processed within 10 minutes of collection, to minimise platelet activation in vitro.
(ii) One tube of blood was centrifuged at 150× g for 20 minutes at 20° C. to prepare platelet rich plasma (PRP).
(iii) A second tube of blood was centrifuged at 1500× g for 30 minutes at 20° C. to prepare platelet poor plasma (PPP).
(iv) The PRP was removed from the blood cell fraction and mixed with the PPP to achieve a platelet count of between 10 and 50×10^6 platelets/ml.
4.1 Method for Measuring Aggregation by Counting in a Flow Cytometer
Flow cytometry can be used to count the number of residual single platelets, and thereby to calculate the percentage of platelets that have bound to artificial platelets. The sample is analysed by the forward and side scatter and an electronic gate is set around the population of single platelets. To do this a sample of platelet-rich plasma is used that contains EDTA to prevent platelet-platelet aggregation occurring. The platelets are labelled with a fluorescently-conjugated antibody such as a CD42b monoclonal that binds to the GPIb receptor on all platelets.
As aggregation occurs the number of platelets within the gate declines. The artificial platelets should not induce aggregation of non-activated (“resting”) platelets. If, however, the platelets are activated, for example by ADP they should aggregate with the artificial platelets. In this assay a sub-optimal concentration of ADP is used to distinguish the effects of the artificial platelets in platelet-deficient plasma.
(i) To set the platelet gate, whole blood that had been collected into EDTA was used. 5 μl of EDTA anticoagulated blood was added to 50 μl Hepes-buffered saline and analysed by forward and side scatter in a flow cytometer (e.g. Beckman Coulter MCL-XL). A gate was set around the platelet population so that>98% of the single platelets are contained within the platelet gate.
(ii) 400 μL of platelet-depleted plasma, with a platelet count of 10-60×10^6/ml, was mixed with 20 μL of control microspheres (blank capsules as disclosed in Example 1, Method 1 (i)) at 10 mg albumin/ml and ADP was added at final concentrations of between 1 and 4×10^−5 M. The sample was stirred at 900 rpm at 37° C. in an aggregometer cuvette for up 10 minutes and aggregation was measured as the change in light transmission (as described in section 4.2 below). The ADP concentration that gave>0% and<20% aggregation was used for the subsequent analysis of the interaction of the product with platelet-depleted plasma.
(iii) To test the products, 400 μL of platelet-depleted plasma, with a platelet count of 10-60×10^6/ml, was mixed with 20 μL of test microspheres at 10 mg albumin/ml and ADP at a concentration determined as described above. The sample was mixed at 900 rpm for up to 10 minutes. At appropriate times 5 μl aliquots were removed for flow cytometric analysis as follows.
(iv) For the analysis 5 μl of test sample was added to 50 μ1 Hepes-buffered saline containing an appropriate concentration of a fluorescently-conjugated antibody to an antigen present on all platelets. We used 1 μl of an RPE-conjugated CD42b monoclonal antibody (we used antibody 555473 provided by BD Harlingen). The sample was incubated for 20 minutes at room temperature (typically 20° C. ) then diluted with 0.5 ml formyl saline (0.2% formalin in 0.9% NaCl).
(v) The diluted sample was then analysed by forward and side scatter in a flow cytometer (e.g. Beckman Coulter MCL-XL) using the gate set around the platelet population in the control sample (see 4.1.i), allowing a fixed volume of sample (e.g. 20 μl) to pass through the cytometer. Particles enclosed in the platelet gate were analysed for fluorescence to identify the number of single platelets within the gate. […]

platelets [2] = experiment: Platelet aggregation in platelet-depleted plasma by light transmission (PAP-4 aggregometer); format: cell-based, human
Procedure: 4.2 Method for Measuring Aggregation by Light Transmission Using the PAP-4 Platelet Aggregometer
In this system the product was mixed with platelet-depleted plasma in a stirred system at […] and aggregation was measured by a change in light transmission.
(i) 400 μl of platelet-depleted plasma was mixed with 20 μl of blank microspheres at 10 mg albumin/ml.
(ii) ADP was added at concentrations between 1 and 4×10^−5M
(iii) Aggregation was measured over 20 minutes and recorded as the percentage of maximum using autologous plasma to set the value for 100% aggregation.

thrombin = experiment: Response of products to thrombin in platelet-free plasma (light transmission aggregometer); format: biochemical, human; conditions: increase in light transmission over 20 minutes, mean ± sd of 4 experiments
Procedure: Cross-linking of the agent of the invention via fibrin-fibrin bridging can be tested in a modified aggregation assay, for example, a protocol based on Levi et al, 1999, Nature Medicine, […], 107-111. The method that we used is reported below.
The assay was performed using a light transmission aggregometer (we used a PAP4 aggregometer (BioData Corporation)). […] Aggregation of the microspheres causes an increase in light transmission, which can be recorded as percentage “aggregation” relative to plasma alone.
The microspheres can be counted using a particle counter such as a Flow cytometer (e.g. Beckman Coulter MCL-XL) or Coulter Z2.
(ii) Platelet-free plasma was prepared by centrifuging blood for 30 minutes at 1500× g and collecting the supernatant.
(iii) 350 μl platelet-free plasma was placed in an aggregometer cuvette and 50 μl of blank microspheres were added. […]

platelets [3] = conditions: purified peptide; cited from earlier work
fibrinogen (human) [4] = target: fibrinogen (human) (UniProt P02671); experiment: flow cytometry, FITC anti-human fibrinogen; albumin microspheres without peptide, fibrinogen bound directly to the surface
Sequence of fibrinogen (human) (P02671 20-629 limits assumed, chain 1 of 3): as the sequence (P02671 20-629 partner limits assumed) above
Sequence of fibrinogen (human) (P02675 31-491 limits assumed, chain 2 of 3, further chain): as the sequence (P02675 31-491) above
Sequence of fibrinogen (human) (P02679 other isoform, or with tags, fused parts or gaps limits assumed, chain 3 of 3, further chain): as the sequence (P02679 27-437 isoform P02679-2 limits assumed) above

fibrinogen (human) [5] = target: fibrinogen (human) (UniProt P02671); experiment: flow cytometry, FITC anti-human fibrinogen; albumin microspheres without peptide, coated directly with 10 mg/ml fibrinogen at pH 6.0
fibrinogen (human) [6] = target: fibrinogen (human) (UniProt P02671); experiment: flow cytometry of peptide-linked albumin microspheres incubated with 3 mg fibrinogen per ml, detected with FITC rabbit anti-human fibrinogen
[7] = listed as peptide-coupled microspheres

Peptide Gly^n = 3: albumin microspheres with bound peptide GPRPGGGC, incubated with 3 mg fibrinogen
Percent positive (percentage of microspheres positive for fibrinogen) (fibrinogen): 94%
Median fluorescence intensity (fibrinogen): 28 arbitrary units (log scale)

Peptide Gly^n = 6: albumin microspheres with bound peptide GPRPGGGGGGC, incubated with 3 mg fibrinogen
Percent positive (percentage of microspheres positive for fibrinogen) (fibrinogen): 95%
Median fluorescence intensity (fibrinogen): 26 arbitrary units (log scale)

Peptide Gly^n = 0: albumin microspheres with bound peptide GPRPC, incubated with 3 mg fibrinogen
Percent positive (percentage of microspheres positive for fibrinogen) (fibrinogen): 6%
Median fluorescence intensity (fibrinogen): 2.4 arbitrary units (log scale)

Product 2: albumin microspheres with peptide GPRPGGGGGGC bound, without fibrinogen
Percentage aggregation in the absence of ADP (platelets [1]): 17.8 ± 3.5%
Percentage aggregation in the absence of ADP (platelets [1]; listed as 0 mg/ml): 17.9 ± 3.45%
Percentage aggregation in the absence of ADP (platelets [1]; [7]): 17.8±3.5%
Percentage aggregation in the presence of ADP (platelets [1]): 57.3 ± 9.3%
Percentage aggregation in the presence of ADP (platelets [1]; listed as 0 mg/ml): 57.6 ± 7.64%
Percentage aggregation in the presence of ADP (platelets [1]; [7]): 57.3±9.3%
Percent positive (percentage of microspheres positive for fibrinogen) (fibrinogen): 13.1%
Percent positive (percentage of microspheres positive for fibrinogen) (fibrinogen; listed as 0 mg/ml): 0%
Median fluorescence intensity (fibrinogen): 1.6 arbitrary units (log scale)
Median fluorescence intensity (fibrinogen; listed as 0 mg/ml): 0 arbitrary units (log scale)
Aggregation in the absence of ADP (aggregometry) (platelets [2]): only low levels of aggregation
Percentage aggregation in the absence of thrombin (thrombin): 4.75 ± 4.4%
Percentage aggregation in the absence of thrombin (thrombin; listed as 0 mg/ml): 4.25 ± 4.93%

TDVNGDGRHDL [Product B12]
Effect on platelet aggregation (platelets [3]): caused inhibition of platelet aggregation

human albumin microspheres of the reference batch (fibrinogen bound directly to the surface, method of WO 98/17319) (from UniProt P02768 25-609)
Median fluorescence intensity (arbitrary units (log scale)) (fibrinogen (human) [4]): 22.4
Percent positive (fibrinogen (human) [4]): 94.7%
Median fluorescence intensity (arbitrary units (log scale)) (fibrinogen (human) [5]): 22
Percent positive (fibrinogen (human) [5]): 94%

B1: peptide GPRPC linked to human albumin microspheres (peptide)
peptide: GPRPC
modifications: also: Cys5 thiol bound to human albumin microspheres (DTNB-activated thiol)
Median fluorescence intensity (arbitrary units (log scale)) (fibrinogen (human) [6]): 2.4
Percent positive (fibrinogen (human) [6]): 6%
